The term Kd denotes the equilibrium constant for the complex coming apart. A high value points to weaker binding.

Kd data for 2 molecules are collected here from article PMC12149299.

Read-outs that look alike come from different tables or passages of the source.

In this assay the target is HIV-1 gp120 protein from the BaL.01 strain (HIV-1). Nature of the assay: BLI. Background: Biolayer interferometry detects binding as a change in optical thickness at a sensor tip.

B1: VRC01 (protein)
chain 1: QVQLVQSGGQMKKPGESMRISCRASGYEFIDCTLNWIRLAPGKRPEWMGWLKPRGGAVNYARPLQGRVTMTRDVYSDTAFLELRSLTVDDTAVYFCTRGKNCDYNWDFEHWGRGTPVIVSS
chain 2: EIVLTQSPGTLSLSPGETAIISCRTSQYGSLAWYQQRPGQAPRLVIYSGSTRAAGIPDRFSGSRWGPDYNLTISNLESGDFGVYYCQQYEFFGQGTKVQVD
In turn, B1 registered a Kd of 25.1 nM.

B2: FD22 (protein)
chain 1: QVQLSQSGGGAVQPGKSLTLSCRAYGFHLFSYVVVWVRQTPQNGLEWVAGAASGGWPQEFMNSVRGRFSISRDDYTVSLQMNALRVDDSGLYFCAQERGLHRLDGAVKFGRWFRAWGQGSQVVVTS
chain 2: QSALTQPASVSGSPGQSITLSCTGADNSVSWYQVVPGRAPKLLIFEVNVRPSEVSDRFSGSKSGDTASLTISRLQIEDESDYYCVTRRGDVTYLFGSGTRVSVL
Where the note is “biotin (EZ-Link NHS-LC-Biotin) in the competition ELISA only | biotin (EZ-Link NHS-LC-Biotin) in the competition ELISA only”, B2 returned a Kd of 8.88 nM.
